Kd, koff and kon data for eight molecules are collected here from US20240336686A1 (ELPISCIENCE SUZHOU BIOPHARMA, published 2024).

T1: human Claudin18.2 protein (Octet assay) (human, UniProt P56856-2 1-261, limits assumed)
T1 construct: UniProt P56856 isoform A2 corresponds to Claudin18.2; also called CLDN18.2
T1 sequence (looked up): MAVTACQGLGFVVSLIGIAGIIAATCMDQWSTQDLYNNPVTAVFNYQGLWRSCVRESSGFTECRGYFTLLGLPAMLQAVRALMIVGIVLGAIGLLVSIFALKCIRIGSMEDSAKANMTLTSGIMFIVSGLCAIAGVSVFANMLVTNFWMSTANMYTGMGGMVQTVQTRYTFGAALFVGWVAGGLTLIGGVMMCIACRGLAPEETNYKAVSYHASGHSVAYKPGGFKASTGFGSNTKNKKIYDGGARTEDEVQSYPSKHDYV

B1: Anti-Claudin18.2 antibody hu28.H1L2 (antibody, V domains shown)
VH: QVQLVQSGAEVKKPGASVKVSCKASGYTFTNWVHWVRQAPGQGLEWMGEINPTNARSNYNEKFKKRVTMTRDTSTSTVYMELSSLRSEDTAVYYCARIYYGNSFAHWGQGTLVTVSS
VL: DIVMTQSPDSLAVSLGERATINCKSSQSLLNAGNQKNYLTWYQQKPGQPPKLLIYWSSTRESGVPDRFSGSGSGTDFTLTISSLQAEDVAVYHCQNNYYYPLTFGGGTKLEIK
notes: Humanized monoclonal antibody; also called Anti-Claudin18.2, hu28.H1L2
B2: Anti-Claudin18.2/SIRPα bispecific antibody ES028-005 (bispecific antibody)
light: B1 VL
heavy (part 1 of 2): B1 VH
heavy (part 2 of 2): GGGGSGGGGSGGGGSQIVLTQSPAIMSASPGEKVTLTCSASSSVSSSYLYWYQQKPGSSPKLWIYSTSNLASGVPARFSGSGSGTSYSLTISSMEAEDAASYFCHQWSSYPYTFGGGTKLEIKGGGGSGGGGSGGGGSGGGGSEVQLQQSGAELVKPGASVKLSCTASGFNIKDYYMHWVKQRTEQGLEWIGRIDPEDGETKYAPKFQGKATITADTSSNTAYLQLSSLTSEDTAVYYCDRGLAYWGQGTLVTVSA
notes: not shown: CL; CH1-Fc
B3: Anti-Claudin18.2/SIRPα bispecific antibody ES028-001 (bispecific antibody)
light (part 1 of 2): B1 VL
light (part 2 of 2): B2 heavy (part 2 of 2)
heavy: B1 VH
notes: not shown: CL; CH1-Fc
B4: Anti-PDL1 antibody C570 (antibody, V domains shown)
VH: EVQLVESGGGLVQAGGSLRLSCAASGFTFSSHAMSWVRQAPGKGLEWVSDIDTSGTTTDYADSVKGRFTISRDNAKNTLYLQMNSLKPEDTAVYYCAKGPREATDIRSWGQGTQVTVSS
notes: Heavy chain antibody; also called Anti-PDL1, C570
B5: Anti-PDL1/SIRPα bispecific antibody ES019-079 (bispecific antibody)
light: QIVLTQSPAIMSASPGEKVTLTCSASSSVSSSYLYWYQQKPGSSPKLWIYSTSNLASGVPARFSGSGSGTSYSLTISSMEAEDAASYFCHQWSSYPYTFGGGTKLEIK
heavy (part 1 of 2): B4 VH
heavy (part 2 of 2): GGGGSGGGGSGGGGSEVQLQQSGAELVKPGASVKLSCTASGFNIKDYYMHWVKQRTEQGLEWIGRIDPEDGETKYAPKFQGKATITADTSSNTAYLQLSSLTSEDTAVYYCDRGLAYWGQGTLVTVSA
notes: not shown: CL; linker and Fc; CH1
B6: Anti-PDL1 antibody 570h3 (antibody, V domains shown)
VH: B4 VH with A14P, A75S, K87R, P88A, Q114T
notes: Humanized heavy chain antibody; also called Anti-PDL1, 570h3
B7: Anti-PDL1/SIRPα bispecific antibody ES019-025 (bispecific antibody)
light: B5 light
heavy (part 1 of 2): EVQVVESGGGLVQSGGSLKLSCAGSGFTESAGFMVWHRQVPGKERELVALIATPSGSTNYADSVKGRFTISRDNGKNTVYLQMNSLKPEDTAVYYCNIRGYWGQGTLVTVSS
heavy (part 2 of 2): EVQLQQSGAELVKPGASVKLSCTASGFNIKDYYMHWVKQRTEQGLEWIGRIDPEDGETKYAPKFQGKATITADTSSNTAYLQLSSLTSEDTAVYYCDRGLAYWGQGTLVTVSA
notes: not shown: CL; linker; CH1-Fc
B8: Anti-PDL1/SIRPα bispecific antibody ES019-029 (bispecific antibody)
chain 1: B7 heavy (part 1 of 2)
chain 2: B7 heavy (part 2 of 2)
chain 3: B5 light

Residue numbers refer to the chain shown, from its start.

Sequence of human PDL1 protein (Octet assay) (Q9NZQ7 19-238 limits assumed): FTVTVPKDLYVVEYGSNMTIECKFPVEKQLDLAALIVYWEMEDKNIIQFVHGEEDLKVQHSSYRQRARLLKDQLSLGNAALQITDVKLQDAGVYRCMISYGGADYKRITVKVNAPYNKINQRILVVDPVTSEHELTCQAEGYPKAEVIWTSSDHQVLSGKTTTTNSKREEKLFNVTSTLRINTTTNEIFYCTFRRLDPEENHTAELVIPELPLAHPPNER

One test deals with T1, human Claudin18.2 protein (Octet assay). As to the kind of experiment: Octet; antibody on sensor, Claudin18.2 protein in solution. The procedure:
The Anti-Claudin18.2/SIRPα bispecific protein were characterized for binding affinity against human Claudin18.2 or SIRPα using Octet assay (ForeBio) according to manufacturer's manual, separately. Briefly, the antibodies were coupled on sensors and then the sensors were dipped into Claudin18.2 or SIRPα protein gradients (start at 200 nM, with 2-fold dilution and totally 8 doses). Their binding responses were measured in real-time and results were fit globally.
As a reminder, the Kd is the equilibrium constant for the complex coming apart. Lower therefore signals tighter binding. The koff is the rate constant with which the complex falls apart. Lower therefore signals slow dissociation. In general, kon refers to a measure of how fast the partners come together. Low readings indicate slower complex formation, high ones faster complex formation. On to B1, for which the dissociation constant Kd was less than 0.001 nM, the off-rate constant (koff) was less than 1e-07 s⁻¹ and the kon worked out at 95800 M⁻¹ s⁻¹.
Take B2: the Kd is less than 0.001 nM, the off-rate (koff) is less than 1e-07 s⁻¹ and the on-rate constant (kon) turned out to be 106000 M⁻¹ s⁻¹.
The matching figures for B3: less than 0.001 nM, less than 1e-07 s⁻¹ and 105000 M⁻¹ s⁻¹.

The target of the next test is human PDL1 protein (Octet assay) (human, UniProt Q9NZQ7 19-238). As to the kind of experiment: Octet; antibody on sensor, PDL1 protein in solution. The method, then:
The Anti-PDL1/SIRPα bispecific protein were characterized for binding affinity against human PDL1 using Octet assay (ForeBio) according to manufacturer's manual, separately. Briefly, the antibodies were coupled on sensors and then the sensors were dipped into PDL1 protein gradients (start at 200 nM, with 2-fold dilution and totally 8 doses). Their binding responses were measured in real-time and results were fit globally.
As for B4, binding was characterised by a dissociation constant (Kd) of 0.374 nM, the off-rate constant (koff) came out at 0.000306 s⁻¹ and the kon was 819000 M⁻¹ s⁻¹.
Taken in the same sequence, the figures for B5 were 0.0485 nM, 2.85e-05 s⁻¹ and 588000 M⁻¹ s⁻¹.
The matching figures for B6: 0.198 nM, 9.29e-05 s⁻¹ and 470000 M⁻¹ s⁻¹.
Regarding B7, the Kd is 3.81 nM, the off-rate constant (koff) stood at 0.00604 s⁻¹ and the kon amounted to 1.58e+06 M⁻¹ s⁻¹.
Taken in the same sequence, the figures for B8 were 1.23 nM, 0.00136 s⁻¹ and 1.11e+06 M⁻¹ s⁻¹.
